# Test results from IntAct's records for PubMed 17318191.
# B1: Catenin beta-1 (Homo sapiens), P35222 (parent)
# chain: MATQADLMELDMAMEPDRKAAVSHWQQQSYLDSGIHSGATTTAPSLSGKGNPEEEDVDTSQVLYEWEQGFSQSFTQEQVADIDGQYAMTRAQRVRAAMFPETLDEGMQIPSTQFDAAHPTNVQRLAEPSQMLKHAVVNLINYQDDAELATRAIPELTKLLNDEDQVVVNKAAVMVHQLSKKEASRHAIMRSPQMVSAIVRTMQNTNDVETARCTAGTLHNLSHHREGLLAIFKSGGIPALVKMLGSPVDSVLFYAITTLHNLLLHQEGAKMAVRLAGGLQKMVALLNKTNVKFLAITTDCLQILAYGNQESKLIILASGGPQALVNIMRTYTYEKLLWTTSRVLKVLSVCSSNKPAIVEAGGMQALGLHLTDPSQRLVQNCLWTLRNLSDAATKQEGMEGLLGTLVQLLGSDDINVVTCAAGILSNLTCNNYKNKMMVCQVGGIEALVRTVLRAGDREDITEPAICALRHLTSRHQEAEMAQNAVRLHYGLPVVVKLLHPPSHWPLIKATVGLIRNLALCPANHAPLREQGAIPRLVQLLVRAHQDTQRRTSMGGTQQQFVEGVRMEEIVEGCTGALHILARDVHNRIVIRGLNTIPLFVQLLYSPIENIQRVAAGVLCELAQDKEAAEAIEAEGATAPLTELLHSRNEGVATYAAAVLFRMSEDKPQDYKKRLSVELTSSLFRTEPMAWNETADLGLDIGAQGEPLGYRQDDPSYRSFHSGGYGQDALGMDPMMEHEMGGHHPGADYPVDGLPDLGHAQDLMDGLPPGDSNQLAWFDTDL
# Variants of: B1
# Conditions: with axin1_human AXIN1, O15169
# Chain of axin1_human AXIN1, O15169 (O15169 whole entry): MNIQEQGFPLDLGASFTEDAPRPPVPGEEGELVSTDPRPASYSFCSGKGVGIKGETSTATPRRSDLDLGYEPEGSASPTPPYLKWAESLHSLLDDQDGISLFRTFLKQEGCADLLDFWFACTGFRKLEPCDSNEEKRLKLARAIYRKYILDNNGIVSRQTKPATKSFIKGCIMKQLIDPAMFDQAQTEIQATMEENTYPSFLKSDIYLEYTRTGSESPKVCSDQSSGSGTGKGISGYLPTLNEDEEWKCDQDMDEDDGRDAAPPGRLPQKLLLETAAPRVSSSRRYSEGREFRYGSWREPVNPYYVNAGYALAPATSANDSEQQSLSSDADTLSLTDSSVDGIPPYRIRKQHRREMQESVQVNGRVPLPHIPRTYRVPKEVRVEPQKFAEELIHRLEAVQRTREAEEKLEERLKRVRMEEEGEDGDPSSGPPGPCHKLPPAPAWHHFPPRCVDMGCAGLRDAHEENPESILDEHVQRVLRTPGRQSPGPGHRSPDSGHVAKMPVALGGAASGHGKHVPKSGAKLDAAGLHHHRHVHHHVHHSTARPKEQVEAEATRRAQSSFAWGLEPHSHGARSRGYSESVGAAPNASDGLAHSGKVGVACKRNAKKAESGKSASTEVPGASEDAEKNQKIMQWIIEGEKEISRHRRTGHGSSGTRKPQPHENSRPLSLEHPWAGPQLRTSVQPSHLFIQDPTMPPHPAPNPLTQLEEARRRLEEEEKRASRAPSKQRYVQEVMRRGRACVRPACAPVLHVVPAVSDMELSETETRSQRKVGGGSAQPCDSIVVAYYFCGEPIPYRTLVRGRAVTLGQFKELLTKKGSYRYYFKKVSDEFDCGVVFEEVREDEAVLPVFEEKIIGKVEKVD
row,Variant,effect of a mutation on the interaction
1,Y142F,disrupting interaction
2,Y654F,decreasing interaction
